From article PMC4244111, “Structure of Putrescine Aminotransferase from Escherichia coli Provides Insights into the Substrate Specificity among Class III Aminotransferases” (PLoS ONE, 2014)

Target: the molecule itself
Assay: crystal structure; crystals by hanging-drop vapour diffusion at 22°C (15% PEG 3350, 0.2 M sodium formate, 0.1 M HEPES pH 7.5); free enzyme at 2.3 Å and putrescine-soaked at 2.1 Å; four molecules in the asymmetric unit; dimer interface analysed with PISA

B1: YgjG putrescine aminotransferase from Escherichia coli (enzyme, UniProt P42588 1-459, looked up)
chain: MNRLPSSASALACSAHALNLIEKRTLDHEEMKALNREVIEYFKEHVNPGFLEYRKSVTAGGDYGAVEWQAGSLNTLVDTQGQEFIDCLGGFGIFNVGHRNPVVVSAVQNQLAKQPLHSQELLDPLRAMLAKTLAALTPGKLKYSFFCNSGTESVEAALKLAKAYQSPRGKFTFIATSGAFHGKSLGALSATAKSTFRKPFMPLLPGFRHVPFGNIEAMRTALNECKKTGDDVAAVILEPIQGEGGVILPPPGYLTAVRKLCDEFGALMILDEVQTGMGRTGKMFACEHENVQPDILCLAKALGGGVMPIGATIATEEVFSVLFDNPFLHTTTFGGNPLACAAALATINVLLEQNLPAQAEQKGDMLLDGFRQLAREYPDLVQEARGKGMLMAIEFVDNEIGYNFASEMFRQRVLVAGTLNNAKTIRIEPPLTLTIEQCELVIKAARKALAAMRVSVEEA
modifications: PLP covalently linked to Lys300 via a Schiff base linkage (free enzyme)
notes: YgjG putrescine aminotransferase (EC 2.6.1.82), Escherichia coli; The seven N-terminal and one C-terminal residues and the His tag are not visible in the electron density; also called PATase; source: E. coli B834(DE3), purified (Ni-NTA, ion-exchange chromatography, size-exclusion chromatography); not shown: His6, C-terminal, kept
  stoichiometry N: 2
